Results as given in paper PMC3080401, “Oligomerization of the E. coli Core RNA Polymerase: Formation of (α2ββ'ω)2–DNA Complexes and Regulation of the Oligomerization by Auxiliary Subunits”.

Experiments:
[1] = biological target: RNA polymerase core enzyme (alpha2 beta beta' omega);RapA (Escherichia coli;Escherichia coli, UniProt P0A7Z4;P0A8V2;P0A8T7;P0A800;P60240 1-329;1-1342;1-1407;1-91;1-968, |); experiment: EMSA; 160 nM core, RapA titration; shifts to single-copy core-RapA-DNA complex; EMSA buffer D (1x): 20 mM Tris-acetate, 10 mM Mg acetate, 50 mM K acetate, 1 mM DTT, pH 7.8; native PAGE in 0.5x TBE running buffer; 37 C for the tac and slyD template reactions, otherwise temperature not stated; settings: protein: native;recombinant; tags: ;; chain copies: 2;1;1;1;1; label: 5'-32P
[2] = biological target: RNA polymerase core enzyme (alpha2 beta beta' omega);NusA (Escherichia coli;Escherichia coli, UniProt P0A7Z4;P0A8V2;P0A8T7;P0A800;P0AFF6 1-329;1-1342;1-1407;1-91;1-495, |); experiment: EMSA; 160 nM core, NusA titration; tandem core-DNA complex dissociated to single copy; EMSA buffer D (1x): 20 mM Tris-acetate, 10 mM Mg acetate, 50 mM K acetate, 1 mM DTT, pH 7.8; native PAGE in 0.5x TBE running buffer; 37 C for the tac and slyD template reactions, otherwise temperature not stated; settings: protein: native;recombinant; tags: ;; chain copies: 2;1;1;1;1; label: 5'-32P

Q: What does the source list for CGCGCCAACAGCGACATCAAATTTGTCGCC (mixed) [short DNA probe (Fig 2E)]?
A: binding result [1]: binds; binding result [2]: binds
